Measured values taken from patent publication US7485712.

How the values were obtained:
[1] = molecular target: taxol-stabilised microtubules (porcine brain tubulin) (porcine) (UniProt P02550); test: binding to taxol stabilized microtubules (30 µM tubulin dimers) after p110MARK phosphorylation
[2] = molecular target: microtubules assembled from porcine brain PC-tubulin (not taxol-stabilised) (porcine) (UniProt P02550); test: cell-based or functional assay
[3] = molecular target: taxol-stabilised microtubules (porcine brain tubulin) (porcine) (UniProt P02550); test: binding to taxol stabilized microtubules (30 µM tubulin dimers), binding curve

Chain of MAP4, phosphorylated with NPK-110 (P27546 630-1125): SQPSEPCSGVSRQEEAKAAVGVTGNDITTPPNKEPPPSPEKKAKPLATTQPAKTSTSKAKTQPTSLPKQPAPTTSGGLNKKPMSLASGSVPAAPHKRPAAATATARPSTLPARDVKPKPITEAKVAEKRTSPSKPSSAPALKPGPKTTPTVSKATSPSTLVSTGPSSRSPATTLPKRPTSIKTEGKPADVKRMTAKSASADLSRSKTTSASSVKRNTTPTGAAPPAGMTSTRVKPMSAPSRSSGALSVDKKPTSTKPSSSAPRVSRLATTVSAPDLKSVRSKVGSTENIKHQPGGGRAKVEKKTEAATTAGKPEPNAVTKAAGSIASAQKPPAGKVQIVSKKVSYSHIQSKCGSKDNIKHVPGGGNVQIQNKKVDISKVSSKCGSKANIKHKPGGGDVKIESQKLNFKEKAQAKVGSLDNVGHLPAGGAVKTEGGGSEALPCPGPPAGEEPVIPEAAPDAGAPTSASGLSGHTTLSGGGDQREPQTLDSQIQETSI

Substance	Kd [1] [µM]	mean length of microtubules, against the control without ATP (fold of control) [2]	also measured
MAP2cA319, phosphorylated with p110MARK	7		
MAP4, phosphorylated with NPK-110		0.5	
recombinant wild type MAP2c, non-phosphorylated			Kd [3]: 0.25 µM; saturation [3]: 17 µM; stoichiometry (MAP2c molecules per tubulin dimer) [3]: 0.5
MAP2, phosphorylated with NPK-110		0.5	
MAP2cA350, phosphorylated with p110MARK	7		
recombinant wild type MAP2c, phosphorylated with p110MARK (NPK-110)		0.5	
